This is an account of results in patent publication US20250152729A1 (CANCER RESEARCH TECHNOLOGY, published 2025).

Numbering of substitutions follows the chain as printed.

In assay [1] the target is T1, recombinant cynomolgus SEMA4A AviHis10, biotinylated (cynomolgus, UniProt Q9H3S1 32-677 (human entry), biotin on the Avi tag (BirA)).
T1 construct: The text says amino acids 32-679 of G7NV79 with C-terminal Avi tag and His10 tag; also called Cyno SEMA4A AviHis10; cynoSEMA4A
T1 chain: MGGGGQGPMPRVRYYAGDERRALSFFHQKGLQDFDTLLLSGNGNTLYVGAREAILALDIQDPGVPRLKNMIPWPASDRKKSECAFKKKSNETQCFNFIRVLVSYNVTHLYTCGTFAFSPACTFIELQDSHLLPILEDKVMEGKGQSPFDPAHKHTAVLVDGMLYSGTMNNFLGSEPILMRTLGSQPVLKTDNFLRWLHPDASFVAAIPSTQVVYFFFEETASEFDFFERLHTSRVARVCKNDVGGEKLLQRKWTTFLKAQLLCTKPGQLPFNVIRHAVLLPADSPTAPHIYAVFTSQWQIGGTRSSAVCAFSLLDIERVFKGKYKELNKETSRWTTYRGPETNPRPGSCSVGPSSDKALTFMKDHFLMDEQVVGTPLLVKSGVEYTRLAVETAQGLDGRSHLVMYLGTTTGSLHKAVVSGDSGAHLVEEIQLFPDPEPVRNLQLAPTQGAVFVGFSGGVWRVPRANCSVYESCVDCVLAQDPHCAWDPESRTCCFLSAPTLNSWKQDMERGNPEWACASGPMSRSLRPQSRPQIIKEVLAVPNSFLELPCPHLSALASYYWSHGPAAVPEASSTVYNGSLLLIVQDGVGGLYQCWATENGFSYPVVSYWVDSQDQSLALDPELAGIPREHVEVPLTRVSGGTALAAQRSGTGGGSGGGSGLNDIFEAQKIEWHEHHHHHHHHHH
The assay is described as follows: BLI (OctetRED), biotinylated SEMA4A on streptavidin tip, Fab as analyte, 1:1 model. The procedure: (§1) An Octet Kinetics buffer (PBS containing 0.01% (v/v) BSA and 0.002% (v/v) Tween20) is typically used as the diluent buffer for the analyte samples and as the flow buffer during the dissociation phase. The experimental data is recorded as shift in interference pattern (nm) over time, which is directly proportional to the optical thickness at the biosensor tip, which in turn is an approximate measure of the mass of analyte bound. The proprietary Octet Data Analysis software package can then be used to process data and fit binding models to the data sets. Returned association (ka, M-1 s-1) and dissociation (kd, s-1) rate constants allow calculation of dissociation (KD, M) affinity constants.
(§2) The affinity of binding between the analytes (humanised and phage display derived IgGs as human Alya IgG1s and Fabs) and human SEMA4A and cynomolgus SEMA4A, was estimated using assays in which the biotinylated SEMA4A antigen was captured on a streptavidin sensor tip. A fresh sensor tip was used for each measurement and no regeneration was used. A series of dilutions of the lead Fabs and human Alya IgG1s (3.25-240 nM) were individually placed in contact with the ligand surface for a sufficient amount of time to observe sensorgrams that could be fitted to an appropriate binding model with confidence (typically 5 minutes), followed by an appropriate length of dissociation time (typically 10 minutes). Blank reference (0 nM analyte) data were subtracted from each dataset to reduce the impact of any buffer artefacts or non-specific binding effects. A 1:1 binding model was then fitted simultaneously to the data from each analyte titration using the Octet Evaluation software (Table 8).

For assay [2], the target named is T2, recombinant human SEMA4A AviHis10, biotinylated (human, UniProt Q9H3S1 33-683, biotin on the Avi tag (BirA)).
T2 construct: The text says amino acids 33-683 of Q9H3S1 with C-terminal Avi tag and His10 tag; also called avi-SEMA4A-His10
T2 sequence: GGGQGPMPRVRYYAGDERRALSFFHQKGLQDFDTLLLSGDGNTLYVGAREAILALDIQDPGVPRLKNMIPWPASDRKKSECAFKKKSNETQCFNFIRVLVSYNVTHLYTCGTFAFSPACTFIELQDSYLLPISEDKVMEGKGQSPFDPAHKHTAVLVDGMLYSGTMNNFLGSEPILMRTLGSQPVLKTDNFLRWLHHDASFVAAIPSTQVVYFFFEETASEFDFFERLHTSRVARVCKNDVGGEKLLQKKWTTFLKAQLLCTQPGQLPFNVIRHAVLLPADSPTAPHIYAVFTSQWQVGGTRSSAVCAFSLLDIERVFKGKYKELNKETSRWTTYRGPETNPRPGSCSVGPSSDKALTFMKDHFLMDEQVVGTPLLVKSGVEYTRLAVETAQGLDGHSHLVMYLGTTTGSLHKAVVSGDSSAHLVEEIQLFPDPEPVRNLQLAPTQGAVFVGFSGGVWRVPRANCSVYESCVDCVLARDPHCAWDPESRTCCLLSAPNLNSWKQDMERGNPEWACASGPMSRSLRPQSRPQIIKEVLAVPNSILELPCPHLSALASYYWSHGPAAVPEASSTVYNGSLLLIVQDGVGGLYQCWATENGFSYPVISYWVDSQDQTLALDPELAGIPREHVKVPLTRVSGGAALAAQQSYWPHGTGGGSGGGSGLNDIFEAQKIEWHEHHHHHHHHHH
The assay is described as above. The procedure:
as §1, §2

Assay [3] addresses T3, human SEMA4A expressed on cells (UniProt ID Q9H3S1, isoform 1) (human, UniProt Q9H3S1 33-761).
T3 construct: Cell-surface SEMA4A: endogenous on MM.1S, NCI-H929 and Karpas-25 cells, or expi293 cells transfected with Origene SC323738; also called human Semaphorin4A; SEMA4A endogenously expressed on MM.1S cells
T3 sequence: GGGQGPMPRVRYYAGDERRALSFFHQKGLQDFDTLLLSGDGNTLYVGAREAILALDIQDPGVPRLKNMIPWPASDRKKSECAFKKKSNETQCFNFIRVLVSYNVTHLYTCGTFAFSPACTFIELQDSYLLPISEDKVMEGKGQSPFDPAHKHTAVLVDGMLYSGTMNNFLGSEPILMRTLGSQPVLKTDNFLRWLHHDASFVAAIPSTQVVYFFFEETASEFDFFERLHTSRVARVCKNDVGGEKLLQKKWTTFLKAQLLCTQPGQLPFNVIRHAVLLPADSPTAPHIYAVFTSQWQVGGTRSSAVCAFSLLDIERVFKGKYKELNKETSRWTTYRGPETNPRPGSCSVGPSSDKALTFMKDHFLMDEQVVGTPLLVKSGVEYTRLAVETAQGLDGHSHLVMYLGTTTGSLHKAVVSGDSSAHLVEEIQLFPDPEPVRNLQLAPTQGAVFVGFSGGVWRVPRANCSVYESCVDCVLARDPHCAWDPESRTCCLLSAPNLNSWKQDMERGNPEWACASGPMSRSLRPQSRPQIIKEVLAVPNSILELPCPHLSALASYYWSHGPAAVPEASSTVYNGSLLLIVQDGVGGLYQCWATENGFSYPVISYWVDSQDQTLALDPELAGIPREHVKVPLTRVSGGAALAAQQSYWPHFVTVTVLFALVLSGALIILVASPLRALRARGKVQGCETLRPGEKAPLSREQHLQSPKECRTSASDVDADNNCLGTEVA
Briefly: direct binding of un-purified human IgG1 to MM.1S cells endogenously expressing human SEMA4A (Mirrorball, anti-human Alexa Fluor 647); single concentration, 1.56 % final. Here is the method: The MM.1S binding assay assessed the ability of the un-purified human IgG1s to bind directly to human SEMA4A that was endogenously expressed by MM.1S cells. Direct binding of a single concentration of un-purified human IgG1s to MM.1S cells was measured via an anti-human secondary labelled with Alexa Fluor 647 (Invitrogen, A21445). 10 μl undiluted un-purified IgG, contained in Expi293 expression medium (Gibco, UK, A1435101), were added to the assay plate (Greiner Bio-one, UK, 781906), followed by 10 μl 8 nM anti-human Alexa Fluor 647 and 20 μl MM.1S cell suspension containing 1,500 cells. The assay plate was incubated for 4 hours at room temperature in the dark prior to reading on a Mirrorball fluorescence cytometer (SPT Labtech, UK) using a 640 nm laser for excitation and measuring emission in the FL-4 channel (650-690 nm). Data was analysed as Count x median mean intensity (x FLU). All dilutions were performed in Hanks' balanced salt solution (Sigma, UK; cat: H8264) containing 0.1% (w/v) BSA (Sigma, UK; cat: A9576). Data were analysed and graphed using GraphPad Prism software (GraphPad Software, Inc, La Jolla, CA).

B1: 5Hg1-5Lg1 Fab fragment (Fab, V domains shown)
VH: QVQLVQSGAEVKKPGASVKVSCKASGYTFTDYWMHWVRQAPGQGLEWMGAIDTSDSYTSYNQKFKGRVTMTRDTSTSTVYMELSSLRSEDTAVYYCARDYGNFYYYAMDYWGQGTLVTVSS
VL: QAVVTQEPSLTVSPGGTVTLTCRSSTGAVTTSNYANWFQQKPGQAPRTLIYGTNNRAPWTPARFSGSLLGGKAALTLSGAQPEDEAEYYCALWYSNHWVFGGGTKLTVL
notes: Fab from pEU1.3 Fab vector (human CH1 and part of hinge) with a whole human light chain constant
B1: the results for the Kd in assay [1] and in assay [2] were 73 nM and 66 nM, respectively.

B2: 5Hg2-5Lg2 Fab fragment (Fab, V domains shown)
VH: B1 VH with G44R, M70I, T76A, V79A
VL: B1 VL with S78L
notes: as for B1
With B2, the Kd was determined as 48 nM in assay [1] and 41 nM in assay [2].

B3: C0120904 (antibody, V domains shown)
VH: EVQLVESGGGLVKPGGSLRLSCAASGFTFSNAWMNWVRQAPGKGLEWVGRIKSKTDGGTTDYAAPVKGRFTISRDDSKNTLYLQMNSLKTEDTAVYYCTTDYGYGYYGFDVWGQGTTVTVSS
VL: SYELTQPPSVSVSPGQTATISCSGNKLGDGYVSWYQQKPGQSPVLVIYQDSKRPSGIPQRYSGSNSGNTATLTISGTQAIDEADYYCQAWDSSTVVFGGGTKVTVL
notes: un-purified fully human phage display IgG, primary screen; also called C0120904 un-purified human IgG1
With B3, in assay [3], the binding result was “binds”.

B4: mouse 5E3 Fab fragment (Fab, V domains shown)
VH: QVQLQQPGAELVMPGASVKMSCKASGYTFTDYWMHWVKQRPGQGLEWIGAIDTSDSYTSYNQKFKGKATLTVDESSSTAYMQLSSLTSEDSAVYYCARDYGNFYYYAMDYWGQGTSVTVSS
VL: QAVVTQESALTTSPGETVTLTCRSSTGAVTTSNYANWVQEKPDHLFTGLIGGTNNRAPGVPARFSGSLIGDKAALTITGAQTEDEAIYFCALWYSNHWVFGGGTKLTVL
notes: Fab from pEU1.3 Fab vector (human CH1 and part of hinge) with a whole human light chain constant; also called Mouse 5E3 (KD Fab)
In the case of B4, the Kd in assay [1] and in assay [2] was 9 nM throughout.

What is called Kd is the constant that tells how readily two partners part at equilibrium.
